The target of the data set is 19 peptidomimetic BACE inhibitors.

B1: purified full-length human BACE with six C-terminal His residues, expressed in Sf9 insect cells (protein)
chain: ETDEEPEEPGRRGSFVEMVDNLRGKSGQGYYVEMTVGSPPQTLNILVDTGSSNFAVGAAPHPFLHRYYQRQLSSTYRDLRKGVYVPYTQGKWEGELGTDLVSIPHGPNVTVRANIAAITESDKFFINGSNWEGILGLAYAEIARPDDSLEPFFDSLVKQTHVPNLFSLQLCGAGFPLNQSEVLASVGGSMIIGGIDHSLYTGSLWYTPIRREWYYEVIIVRVEINGQDLKMDCKEYNYDKSIVDSGTTNLRLPKKVFEAAVKSIKAASSTEKFPDGFWLGEQLVCWQAGTTPWNIFPVISLYLMGEVTNQSFRITILPQQYLRPVEDVATSQDDCYKFAISQSSTGTVMGAVIMEGFYVVFDRARKRIGFAVSACHVHDEFRTAAVEGPFVTLDMEDCGYNIPQTDESTLMTIAYVMAAICALFMLPLCLMVCQWRCLRCLRQQHDDFADDISLLKHHHHHH
On to B1, for which the “FRET assay (proteolytic activity of beta-secretase)” value is reported as “test compounds inhibiting the binding of a tagged beta-secretase to beta-secretase also inhibit the proteolytic activity of beta-secretase leading to production of A-beta over a broad range of IC-50 values”.

The values above are taken from patent publication US20030125257.
